The values below come from paper PMC12002099, “Recombinant Production and Characterization of Six Ene‐reductases from Penicillium steckii” (Chembiochem, 2025).

The target of data set [1] is T1, PsOYE4 (Penicillium steckii, UniProt A0A1V6TQX2).
T1 construct: gene PENSTE_c003G03501
Description: steady-state kinetics, NADPH consumption, Michaelis-Menten fit. The format is biochemical. Particulars: co-substrate p-benzoquinone. The source says:
(§1) steady-state kinetics, NADPH consumption, Michaelis-Menten fit on PsOYE4

Data set [2] deals with PsOYE2, Class III OYE-type ene-reductase from Penicillium steckii (Penicillium steckii). The experiment in a line: crystal structure; PsOYE2 without any tag, FMN bound; monoclinic space group P2(1), four dimers in the asymmetric unit; 2.3 Å; interface analysed with PISA.
Data set [3] has the same target. Description: DLS; PsOYE2 in solution; conditions not shown.
Data set [4] has the same target. The experiment in a line: SEC; PsOYE2 in solution; conditions not shown. A general note: SEC sorts molecules by how far they enter the pores of the column.
A further data set addresses T2, PsOYE2 (Penicillium steckii, UniProt A0A1V6SMJ6).
T2 construct: gene PENSTE_c029G02105; tag-free, His-SUMO fusion cut off, expressed in E. coli; homodimer; residues 2-413 seen, C-terminus 414-422 not visible
T2 sequence (A0A1V6SMJ6 1-422): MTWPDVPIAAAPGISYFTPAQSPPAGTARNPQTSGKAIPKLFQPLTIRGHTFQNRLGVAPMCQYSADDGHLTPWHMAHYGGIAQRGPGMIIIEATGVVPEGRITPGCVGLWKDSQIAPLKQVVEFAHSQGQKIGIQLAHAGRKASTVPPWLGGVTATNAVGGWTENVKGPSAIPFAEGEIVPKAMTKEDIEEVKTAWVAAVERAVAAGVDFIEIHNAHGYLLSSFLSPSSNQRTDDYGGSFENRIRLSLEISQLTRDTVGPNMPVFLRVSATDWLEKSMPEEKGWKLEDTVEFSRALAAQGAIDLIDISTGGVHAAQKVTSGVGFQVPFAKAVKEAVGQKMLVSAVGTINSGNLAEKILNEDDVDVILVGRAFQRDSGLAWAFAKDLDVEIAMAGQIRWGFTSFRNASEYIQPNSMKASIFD
The experiment in a line: X-ray crystal structure, […] Å. Type of data set: binding. The settings on record: co-purified cofactor; site completed by adjacent protomer.

The target in data set [5] is T1, PsOYE4. The experiment in a line: UV-Vis flavin spectrum of purified enzyme, FMN release on denaturation. The format is binding. Particulars: co-purified cofactor.
The next data set has as its target T3, PsOYE6 (Penicillium steckii, UniProt A0A1V6SJW2).
T3 construct: gene PENSTE_c042G09698
T3 sequence (A0A1V6SJW2 1-370): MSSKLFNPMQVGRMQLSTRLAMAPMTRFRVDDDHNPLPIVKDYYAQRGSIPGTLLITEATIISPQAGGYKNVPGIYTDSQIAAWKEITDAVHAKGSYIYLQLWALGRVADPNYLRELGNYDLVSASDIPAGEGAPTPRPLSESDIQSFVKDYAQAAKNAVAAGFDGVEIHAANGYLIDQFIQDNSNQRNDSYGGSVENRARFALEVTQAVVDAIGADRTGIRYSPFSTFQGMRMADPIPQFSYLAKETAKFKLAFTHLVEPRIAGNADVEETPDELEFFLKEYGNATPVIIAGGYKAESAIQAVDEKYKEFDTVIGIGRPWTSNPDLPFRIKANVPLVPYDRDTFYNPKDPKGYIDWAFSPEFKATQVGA
The data set is described as above. The settings on record: co-purified cofactor. Type of data set: binding.

The target in the next data set is T4, PsOYE1 (Penicillium steckii, UniProt A0A1V6T993).
T4 construct: gene PENSTE_c009G01003
T4 sequence (A0A1V6T993 1-408): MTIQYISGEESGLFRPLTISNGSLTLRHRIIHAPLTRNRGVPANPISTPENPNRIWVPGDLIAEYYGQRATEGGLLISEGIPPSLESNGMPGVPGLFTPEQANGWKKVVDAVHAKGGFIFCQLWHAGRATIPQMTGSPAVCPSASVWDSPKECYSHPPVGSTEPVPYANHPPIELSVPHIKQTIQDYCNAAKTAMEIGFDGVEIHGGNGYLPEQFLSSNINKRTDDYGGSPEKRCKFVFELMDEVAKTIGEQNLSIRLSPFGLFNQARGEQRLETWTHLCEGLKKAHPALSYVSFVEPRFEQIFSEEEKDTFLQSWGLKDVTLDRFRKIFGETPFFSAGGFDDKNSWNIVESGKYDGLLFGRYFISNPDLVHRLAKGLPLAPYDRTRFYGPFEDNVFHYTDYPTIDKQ
The data set is described as above. The format is binding. Particulars: co-purified cofactor.

A further data set concerns the target T5, PsOYE3 (Penicillium steckii, UniProt A0A1V6SNM3).
T5 construct: gene PENSTE_c027G02138
T5 sequence (A0A1V6SNM3 1-421): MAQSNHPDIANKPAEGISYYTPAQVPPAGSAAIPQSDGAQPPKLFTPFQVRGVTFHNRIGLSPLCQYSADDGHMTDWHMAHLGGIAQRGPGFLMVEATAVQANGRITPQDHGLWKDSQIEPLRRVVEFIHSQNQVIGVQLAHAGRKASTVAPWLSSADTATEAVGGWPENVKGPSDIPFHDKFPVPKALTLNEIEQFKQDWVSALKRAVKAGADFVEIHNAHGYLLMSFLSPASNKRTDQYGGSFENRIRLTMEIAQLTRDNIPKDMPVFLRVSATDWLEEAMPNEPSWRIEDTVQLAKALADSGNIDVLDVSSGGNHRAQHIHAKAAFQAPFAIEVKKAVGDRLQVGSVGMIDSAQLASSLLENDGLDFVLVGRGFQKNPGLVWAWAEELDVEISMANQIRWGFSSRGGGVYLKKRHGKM
The data set is described as above. The format is binding. The settings on record: co-purified cofactor.

The test system of the next data set is O=C1C=CC(=O)C=C1. The experiment in a line: steady-state kinetics, NADPH consumption, Michaelis-Menten fit. The format is biochemical, Penicillium steckii. The settings on record: co-substrate NADPH.
Excerpt: as §1

Substrate in data set [6]: O=C1C=CC(=O)C=C1
The description is as above. Type of data set: biochemical, Penicillium steckii. Particulars: co-substrate NADPH. The source says: (§2) steady-state kinetics, NADPH consumption, Michaelis-Menten fit on PsOYE3
The source holds these as a separate data set.

Substrate in data set [7]: NC(=O)C1=CN([C@@H]2O[C@H](COP(=O)(O)OP(=O)(O)OC[C@H]3O[C@@H](n4cnc5c(N)ncnc54)[C@H](OP(=O)(O)O)[C@@H]3O)[C@@H](O)[C@H]2O)C=CC1
Described as above. The format is biochemical, Penicillium steckii. Particulars: co-substrate p-benzoquinone.
Excerpt: as §2

Substrate in data set [8]: O=C1C=CC(=O)C=C1
Described as above. Type of data set: biochemical, Penicillium steckii. Particulars: co-substrate NADPH. The text has this: (§3) steady-state kinetics, NADPH consumption, Michaelis-Menten fit on PsOYE2
The source holds these as a separate data set.

Substrate in data set [9]: NC(=O)C1=CN([C@@H]2O[C@H](COP(=O)(O)OP(=O)(O)OC[C@H]3O[C@@H](n4cnc5c(N)ncnc54)[C@H](OP(=O)(O)O)[C@@H]3O)[C@@H](O)[C@H]2O)C=CC1
Described as above. The format is biochemical, Penicillium steckii. The settings on record: co-substrate p-benzoquinone.
Excerpt: as §3
This is another data set of the same source.

A word on the Km: it is the concentration of substrate that gives half-maximal velocity. One may read the stoichiometry N as a count of units in the complex or per binding partner. By kcat is commonly meant the number of substrate molecules converted per active site and unit of time at saturation. The kcat/Km is the turnover number divided by the Michaelis constant.

Consider `NC(=O)C1=CN([C@@H]2O[C@H](COP(=O)(O)OP(=O)(O)OC[C@H]3O[C@@H](n4cnc5c(N)ncnc54)[C@H](OP(=O)(O)O)[C@@H]3O)[C@@H](O)[C@H]2O)C=CC1` [NADPH], for which the Km at PsOYE4 [1] was 300 ± 100 µM.
As to “PsOYE2, Class III OYE-type ene-reductase from Penicillium steckii (enzyme)”, the stoichiometry N in data set [2], in data set [3] and in [4] was 2 each time.
In the case of `Cc1cc2nc3c(=O)[nH]c(=O)nc-3n(C[C@H](O)[C@H](O)[C@H](O)COP(=O)(O)O)c2cc1C` [FMN], the “X-ray crystal structure, 2.3 Å” value at PsOYE2 was “The FMN cofactor, situated on the C‐terminal side of the barrel, has interactions”. Further, the “UV-Vis flavin spectrum of purified enzyme, FMN release on denaturation” value on PsOYE4 [5] is “Expression and subsequent purification led to reasonably high yields of pure, soluble, and FMN‐bound proteins”; on PsOYE6, “Expression and subsequent purification led to reasonably high yields of pure, soluble, and FMN‐bound proteins”; on PsOYE1 it was “Expression and subsequent purification led to reasonably high yields of pure, soluble, and FMN‐bound proteins”; on PsOYE3, “Expression and subsequent purification led to reasonably high yields of pure, soluble, and FMN‐bound proteins”.
PsOYE4 (Penicillium steckii): in the data set on O=C1C=CC(=O)C=C1, the Km came to 1100 ± 100 µM, the kcat worked out at 28 ± 1 s⁻¹ and the kcat/Km turned out to be 26000 M⁻¹ s⁻¹.

B1: PsOYE3 (Penicillium steckii) (protein)
chain: MAQSNHPDIANKPAEGISYYTPAQVPPAGSAAIPQSDGAQPPKLFTPFQVRGVTFHNRIGLSPLCQYSADDGHMTDWHMAHLGGIAQRGPGFLMVEATAVQANGRITPQDHGLWKDSQIEPLRRVVEFIHSQNQVIGVQLAHAGRKASTVAPWLSSADTATEAVGGWPENVKGPSDIPFHDKFPVPKALTLNEIEQFKQDWVSALKRAVKAGADFVEIHNAHGYLLMSFLSPASNKRTDQYGGSFENRIRLTMEIAQLTRDNIPKDMPVFLRVSATDWLEEAMPNEPSWRIEDTVQLAKALADSGNIDVLDVSSGGNHRAQHIHAKAAFQAPFAIEVKKAVGDRLQVGSVGMIDSAQLASSLLENDGLDFVLVGRGFQKNPGLVWAWAEELDVEISMANQIRWGFSSRGGGVYLKKRHGKM
With B1, in data set [6], the Km came out at 8 ± 1 µM, the kcat came to 19.6 ± 1.3 s⁻¹ and the catalytic efficiency (kcat/Km) came to 2.45e+06 M⁻¹ s⁻¹. In data set [7], the Km turned out to be 200 ± 0 µM, the kcat is 64 ± 4 s⁻¹ and the catalytic efficiency (kcat/Km) was 350000 M⁻¹ s⁻¹.

B2: PsOYE2 (Penicillium steckii) (protein)
chain: MTWPDVPIAAAPGISYFTPAQSPPAGTARNPQTSGKAIPKLFQPLTIRGHTFQNRLGVAPMCQYSADDGHLTPWHMAHYGGIAQRGPGMIIIEATGVVPEGRITPGCVGLWKDSQIAPLKQVVEFAHSQGQKIGIQLAHAGRKASTVPPWLGGVTATNAVGGWTENVKGPSAIPFAEGEIVPKAMTKEDIEEVKTAWVAAVERAVAAGVDFIEIHNAHGYLLSSFLSPSSNQRTDDYGGSFENRIRLSLEISQLTRDTVGPNMPVFLRVSATDWLEKSMPEEKGWKLEDTVEFSRALAAQGAIDLIDISTGGVHAAQKVTSGVGFQVPFAKAVKEAVGQKMLVSAVGTINSGNLAEKILNEDDVDVILVGRAFQRDSGLAWAFAKDLDVEIAMAGQIRWGFTSFRNASEYIQPNSMKASIFD
Regarding B2, in [8], the Km came out at 2 ± 1 µM. Further, in data set [9], the Km is 500 ± 100 µM, the kcat is 70 ± 10 s⁻¹ and the kcat/Km was 140000 M⁻¹ s⁻¹.
